Test results: patent publication US20240368668A1, “SUBSTRATES AND BIOMARKERS OF ADAMTS7” (The Broad Institute, Inc., priority 2021, published 2024)
Square brackets hold non-standard residues; d marks the D form. Ends that are not written are not given here.

Biological target: T1, mouse ADAMTS7 (Mus musculus, UniProt Q68SA9, E373Q)
T1 construct: Full-length mouse Adamts7 1-1857 (Uniprot Q68SA9, WT or E373Q catalytic mutant); expressed in transfected cells; host or cells: Human Coronary Artery Smooth Muscle Cells (HCA-SMC, Lonza), adenovirus 50 MOI
T1 sequence (Q68SA9 221-1657 E373Q): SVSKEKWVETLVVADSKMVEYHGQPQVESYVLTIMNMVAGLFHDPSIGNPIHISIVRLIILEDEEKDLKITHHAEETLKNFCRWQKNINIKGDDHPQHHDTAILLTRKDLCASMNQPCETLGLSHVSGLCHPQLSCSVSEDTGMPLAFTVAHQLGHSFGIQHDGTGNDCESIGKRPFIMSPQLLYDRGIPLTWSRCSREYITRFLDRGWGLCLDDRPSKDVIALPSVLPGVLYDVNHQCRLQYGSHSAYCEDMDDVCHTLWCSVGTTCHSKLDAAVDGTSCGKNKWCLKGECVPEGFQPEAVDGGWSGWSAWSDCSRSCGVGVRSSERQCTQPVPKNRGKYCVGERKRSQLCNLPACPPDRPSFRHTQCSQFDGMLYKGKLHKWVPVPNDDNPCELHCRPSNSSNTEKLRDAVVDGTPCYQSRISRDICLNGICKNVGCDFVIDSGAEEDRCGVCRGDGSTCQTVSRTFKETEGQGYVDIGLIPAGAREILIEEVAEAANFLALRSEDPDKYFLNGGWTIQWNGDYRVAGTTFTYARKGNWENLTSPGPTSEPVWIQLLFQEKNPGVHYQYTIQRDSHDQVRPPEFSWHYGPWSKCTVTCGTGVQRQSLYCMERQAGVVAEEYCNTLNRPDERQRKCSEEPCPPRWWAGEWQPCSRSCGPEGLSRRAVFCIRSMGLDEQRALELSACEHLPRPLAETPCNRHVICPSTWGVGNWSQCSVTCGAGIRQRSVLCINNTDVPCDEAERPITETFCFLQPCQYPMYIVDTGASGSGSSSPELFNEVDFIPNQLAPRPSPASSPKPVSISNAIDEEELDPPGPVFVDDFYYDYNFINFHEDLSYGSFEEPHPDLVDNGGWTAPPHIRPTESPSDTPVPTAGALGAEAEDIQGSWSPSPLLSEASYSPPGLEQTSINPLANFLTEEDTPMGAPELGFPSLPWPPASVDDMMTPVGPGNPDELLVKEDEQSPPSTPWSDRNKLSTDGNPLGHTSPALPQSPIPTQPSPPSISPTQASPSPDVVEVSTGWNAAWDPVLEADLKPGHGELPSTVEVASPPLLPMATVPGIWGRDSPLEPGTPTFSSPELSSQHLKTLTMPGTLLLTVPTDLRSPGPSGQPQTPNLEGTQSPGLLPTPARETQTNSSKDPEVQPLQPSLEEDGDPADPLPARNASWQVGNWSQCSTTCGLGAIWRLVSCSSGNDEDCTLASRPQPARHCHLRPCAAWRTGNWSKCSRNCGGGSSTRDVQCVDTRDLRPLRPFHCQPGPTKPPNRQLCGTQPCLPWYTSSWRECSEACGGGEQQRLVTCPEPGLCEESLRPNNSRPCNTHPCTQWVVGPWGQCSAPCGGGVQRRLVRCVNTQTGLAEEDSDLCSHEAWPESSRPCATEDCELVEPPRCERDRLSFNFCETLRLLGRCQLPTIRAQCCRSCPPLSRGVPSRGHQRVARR
Experiment: TMT10 TAILS N-terminomics, HUVEC experiment (process replicates, trypsin/AspN digest)
Type: cell-based, human
Settings: HUVEC TAILS HC; log fold change of N-terminal peptide, Ad-mADAMTS7 EQ over Luc
Method in brief: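 Full-length mouse ADAMTS7 (WT or E373Q mutant, C-terminal 3xFLAG) or luciferase was transduced via adenovirus, 50 MOI, into HCA-SMC (SMC1, SMC2) or HUVEC. SMC1: pooled media, technical triplicates 400 ug; SMC2: process triplicates 300 ug; HUVEC: process triplicates 200 ug, bFGF2 10 ng/ml.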

| Substance | logFC.mEQ.over.Luc |
| --- | --- |
| ECM1_108 (QEAVPLQK; listed as Homo sapiens) | 0.09 |
| EFEMP1_125_ (VAGPEMQTGR; listed as Homo sapiens) | −0.11 |
| ERAP2_718 (ISENLKR; listed as Homo sapiens) | 0.64 |
| EWSR1_87 (YSQPVQGYGTGAY; listed as Homo sapiens) | −0.05 |
| FN1_34 ([code q]QMVQPQSPVAVSQSKPGCY; not fully specified (residue 3); listed as Homo sapiens) | −0.06 |
| FN1_35 ([code q]MVQPQSPVAVSQSKPGCY; not fully specified (residue 2); listed as Homo sapiens) | −0.27 |
| FN1_293 (VYQPQPHPQPPPYGHCVT; listed as Homo sapiens) | −0.29 |
| FN1_607 (SSSGPVEVFIT; listed as Homo sapiens) | −0.40 |
| FN1_1144 (TPGVEYVYTIQVLR; listed as Homo sapiens) | −0.19 |
| FN1_1780 (LQGLRPGSEYTVSVVALH; listed as Homo sapiens) | −0.47 |
| FN1_1805 (LIGTQSTAIPAPT; listed as Homo sapiens) | 0.05 |
| FN1_2113 (FVTHPGY; listed as Homo sapiens) | −0.62 |
| FSTL1_290 (LQKHQETA; listed as Homo sapiens) | −0.24 |
| LOX_125 (FQAGYSTSR; listed as Homo sapiens) | 0.24 |
